# Results from patent publication US20260167699A1 (Chugai, published 2026).
# B1: GpH7-A5/GpH7-B3 variant Y296_20W/GpL16-k0 (antibody, human IgG1, kappa)
# heavy 1: not shown
# heavy 2: not shown
# light: DIVMTQSPLSLPVTPGEPASISCQASESLVHSNRNTYLHWYLQKPGQSPQLLIYKVSNRFSGVPDRFSGSGSGTDFTLKISRVEAEDVGVYYCSQNTHVPPTFGQGTKVEIERTVAAPSVFIFPPSDEQLKSGTASVVCLLNNFYPREAKVQWKVDNALQSGNSQESVTEQDSKDSTYSLSSTLTLSKADYEKHKVYACEVTHQGLSSPVTKSFNRGEC
# notes: He Ab; copies: 1 + 1 + 2
# B2: GpH7-A5/GpH7-B3 variant Y300_18N/GpL16-k0 (antibody, human IgG1, kappa)
# heavy 1: not shown
# heavy 2: not shown
# light: B1 light
# notes: He Ab; copies: 1 + 1 + 2
# B3: GpH7-A5/GpH7-B3 variant Y300_16H/GpL16-k0 (antibody, human IgG1, kappa)
# heavy 1: not shown
# heavy 2: not shown
# light: B1 light
# notes: He Ab; copies: 1 + 1 + 2
# B4: GpH7-A5/GpH7-B3 variant Y300_10E/GpL16-k0 (antibody, human IgG1, kappa)
# heavy 1: not shown
# heavy 2: not shown
# light: B1 light
# notes: He Ab; copies: 1 + 1 + 2
# B5: GpH7-A5/GpH7-B3 variant Y300_20W/GpL16-k0 (antibody, human IgG1, kappa)
# heavy 1: not shown
# heavy 2: not shown
# light: B1 light
# notes: He Ab; copies: 1 + 1 + 2
# B6: GpH7-A5/GpH7-B3 variant Y300_13S/GpL16-k0 (antibody, human IgG1, kappa)
# heavy 1: not shown
# heavy 2: not shown
# light: B1 light
# notes: He Ab; copies: 1 + 1 + 2
# B7: GpH7-A5/GpH7-B3 variant Y300_19Q/GpL16-k0 (antibody, human IgG1, kappa)
# heavy 1: not shown
# heavy 2: not shown
# light: B1 light
# notes: He Ab; copies: 1 + 1 + 2
# B8: GpH7-A5/GpH7-B3 variant Y300_11K/GpL16-k0 (antibody, human IgG1, kappa)
# heavy 1: not shown
# heavy 2: not shown
# light: B1 light
# notes: He Ab; copies: 1 + 1 + 2
# B9: GpH7-A5/GpH7-B3 variant Y300_06M/GpL16-k0 (antibody, human IgG1, kappa)
# heavy 1: not shown
# heavy 2: not shown
# light: B1 light
# notes: He Ab; copies: 1 + 1 + 2
# B10: GpH7-A5/GpH7-B3 variant Y300_09D/GpL16-k0 (antibody, human IgG1, kappa)
# heavy 1: not shown
# heavy 2: not shown
# light: B1 light
# notes: He Ab; copies: 1 + 1 + 2
# B11: GpH7-A5/GpH7-B3 variant Y300_02A/GpL16-k0 (antibody, human IgG1, kappa)
# heavy 1: not shown
# heavy 2: not shown
# light: B1 light
# notes: He Ab; copies: 1 + 1 + 2
# B12: GpH7-A5/GpH7-B3 variant Y300_14T/GpL16-k0 (antibody, human IgG1, kappa)
# heavy 1: not shown
# heavy 2: not shown
# light: B1 light
# notes: He Ab; copies: 1 + 1 + 2
# B13: GpH7-A5/GpH7-B3 variant Y300_07I/GpL16-k0 (antibody, human IgG1, kappa)
# heavy 1: not shown
# heavy 2: not shown
# light: B1 light
# notes: He Ab; copies: 1 + 1 + 2
# B14: GpH7-A5/GpH7-B3 variant Y300_03V/GpL16-k0 (antibody, human IgG1, kappa)
# heavy 1: not shown
# heavy 2: not shown
# light: B1 light
# notes: He Ab; copies: 1 + 1 + 2
# B15: GpH7-A5/GpH7-B3 variant Y300_01G/GpL16-k0 (antibody, human IgG1, kappa)
# heavy 1: not shown
# heavy 2: not shown
# light: B1 light
# notes: He Ab; copies: 1 + 1 + 2
# B16: GpH7-A5/GpH7-B3 variant Y300_08L/GpL16-k0 (antibody, human IgG1, kappa)
# heavy 1: not shown
# heavy 2: not shown
# light: B1 light
# notes: He Ab; copies: 1 + 1 + 2
# B17: GpH7-A5/GpH7-B3 variant Y300_04F/GpL16-k0 (antibody, human IgG1, kappa)
# heavy 1: not shown
# heavy 2: not shown
# light: B1 light
# notes: He Ab; copies: 1 + 1 + 2
# Molecular target: T1, FcγRIIIa extracellular domain, C-terminal His tag (human, UniProt P08637 17-208)
# T1 construct: extracellular domain; also called 3a
# Assay: SPR, binding activity relative to GpH7-A5/GpH7-B3/GpL16-k0 (=100)
# T1 sequence (P08637 other isoform, or with tags, fused parts or gaps): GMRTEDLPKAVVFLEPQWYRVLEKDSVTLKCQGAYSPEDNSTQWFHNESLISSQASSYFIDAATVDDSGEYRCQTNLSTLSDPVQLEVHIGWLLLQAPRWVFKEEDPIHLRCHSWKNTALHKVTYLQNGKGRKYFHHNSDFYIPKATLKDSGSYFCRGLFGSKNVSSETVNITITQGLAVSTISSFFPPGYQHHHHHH
row,Binder,He/Con 3a
1,B1,127%
2,B2,96%
3,B3,102%
4,B4,113%
5,B5,101%
6,B6,80.3%
7,B7,105%
8,B8,63.7%
9,B9,106%
10,B10,104%
11,B11,88.1%
12,B12,92.8%
13,B13,103%
14,B14,83.8%
15,B15,88.6%
16,B16,114%
17,B17,100%
